Measurements from patent publication US11466066B2, “Variants of human BMP7 protein” (ELI LILLY AND COMPANY, priority 2017, dated 2022).
Where a chain is given by its changes, count along the chain named. Names may count otherwise.

B1: human BMP7 protein: wild type human BMP7 protein of Example 2; pro or mature form not stated (protein, UniProt P18075 293-431, looked up)
Bone morphogenetic protein 7: STGSKQRSQNRSKTPKNQEALRMANVAENSSSDQRQACKKHELYVSFRDLGWQDWIIAPEGYAAYYCEGECAFPLNSYMNATNHAIVQTLVHFINPETVPKPCCAPTQLNAISVLYFDDSSNVILKKYRNMVVRACGCH
B2: A37P: SEQ ID NO: 2 having the single amino acid mutation A37P (protein, listed as Homo sapiens)
chain: B1 Bone morphogenetic protein 7 with A37P
B3: D33M: SEQ ID NO: 2 having the single amino acid mutation D33M (protein, listed as Homo sapiens)
chain: B1 Bone morphogenetic protein 7 with D33M
B4: F93V: SEQ ID NO: 2 having the single amino acid mutation F93V (protein, listed as Homo sapiens)
chain: B1 Bone morphogenetic protein 7 with F93V
B5: N110G: SEQ ID NO: 2 having the single amino acid mutation N110G (protein, listed as Homo sapiens)
chain: B1 Bone morphogenetic protein 7 with N110G
B6: I86V: SEQ ID NO: 2 having the single amino acid mutation I86V (protein, listed as Homo sapiens)
chain: B1 Bone morphogenetic protein 7 with I86V
B7: V91M: SEQ ID NO: 2 having the single amino acid mutation V91M (protein, listed as Homo sapiens)
chain: B1 Bone morphogenetic protein 7 with V91M
B8: E60Q: SEQ ID NO: 2 having the single amino acid mutation E60Q (protein, listed as Homo sapiens)
chain: B1 Bone morphogenetic protein 7 with E60Q
B9: V114M: SEQ ID NO: 2 having the single amino acid mutation V114M (protein, listed as Homo sapiens)
chain: B1 Bone morphogenetic protein 7 with V114M
B10: Y65G: SEQ ID NO: 2 having the single amino acid mutation Y65G (protein, listed as Homo sapiens)
chain: B1 Bone morphogenetic protein 7 with Y65G
B11: I94F: SEQ ID NO: 2 having the single amino acid mutation I94F (protein, listed as Homo sapiens)
chain: B1 Bone morphogenetic protein 7 with I94F
B12: T89A: SEQ ID NO: 2 having the single amino acid mutation T89A (protein, listed as Homo sapiens)
chain: B1 Bone morphogenetic protein 7 with T89A
B13: I86L: SEQ ID NO: 2 having the single amino acid mutation I86L (protein, listed as Homo sapiens)
chain: B1 Bone morphogenetic protein 7 with I86L
B14: Y65G/I86L/N110G: human mature BMP7 protein variant, SEQ ID NO: 10 (protein)
chain: B1 Bone morphogenetic protein 7 with Y65G, I86L, N110G
B15: Y65G/I86L/N110G/Y128F: human mature BMP7 protein variant, SEQ ID NO: 6 (protein)
chain: B1 Bone morphogenetic protein 7 with Y65G, I86L, N110G, Y128F
B16: Y65G/I86L/T89A/N110G: human mature BMP7 protein variant, SEQ ID NO: 5 (protein)
chain: B1 Bone morphogenetic protein 7 with Y65G, I86L, T89A, N110G
B17: Y65G/T89A/N110G/Y128F: human mature BMP7 protein variant, SEQ ID NO: 9 (protein)
chain: B1 Bone morphogenetic protein 7 with Y65G, T89A, N110G, Y128F
B18: F93V/N110G: human mature BMP7 protein variant F93V/N110G, SEQ ID NO: 4 (protein)
chain: B1 Bone morphogenetic protein 7 with F93V, N110G
B19: Y65G/V114M: human mature BMP7 protein variant, SEQ ID NO: 11 (protein)
chain: B1 Bone morphogenetic protein 7 with Y65G, V114M
B20: Y65G/I86L/N110G/Y128W: human mature BMP7 protein variant, SEQ ID NO: 7 (protein)
chain: B1 Bone morphogenetic protein 7 with Y65G, I86L, N110G, Y128W

Assays:
[1] = Thermal unfolding assay (circular dichroism); type: physicochemical; settings: CD at 208 nm; 10 mM citrate, 300 mM NaCl, pH 7.4
Description: The effect of temperature on the conformational stability of human BMP7 protein variants may be followed by circular dichroism (CD) on a Jasco J-810 instrument equipped with a thermoelectric sample compartment. Briefly stated, 0.2-1.0 mg/mL pro-BMP7 may be formulated in storage buffer (10 mM citrate, 300 mM NaCl, pH 7.4) and loaded into a 0.02 cm path-length CD cuvette. The sample may be heated from 20 to 80° C. at a linear rate of 1° C./minute and the resulting CD signal at 208 nm may be recorded every 0.2° C. using a 1 second signal response time. A non-linear fit to equation 1 may be performed by the program JMP (SAS Institute Inc, Cary, N.C.) to obtain the thermal unfolding mid-point (Tm).
[formula] where, Yu and Yf are fit and represent the Y-intercept of the pre- and post-transition baselines, respectively. Mu and Mf are fit and represent the slope of the pre- and post-transition baselines, respectively. Hm and S are fit and represent enthalpy and entropy, respectively. T is the measured temperature in Kelvin units.

RAR alpha = RAR alpha protein expression, Western Blot; type: cell-based, mouse; settings: MFc7 and 3T3-L1 cell lines; 1 μg/mL, 48 hours; Western Blot intensity
Description: (§1) 3T3-L1 fibroblasts and MFc7 mouse renal myofibroblasts may be maintained under routine cell culture conditions in DMEM/10% calf serum medium or OPTI-MEM/10% FBS medium, respectively. The cells may be plated in 10 cm tissue culture plates at a seeding density of 500,000 cells/plate. After 48 hours, the cells may be washed with PBS prior to the addition of either DMEM/2% dialyzed FBS or OPTI-MEM/2% dialyzed FBS medium containing 1 μg/mL human BMP7 protein or 1 μg/mL of a human BMP7 protein variant. The cells may be incubated for 48 hours and then rinsed with ice-cold PBS, and then lysed with Protein Extraction Reagent. Then lysates may be centrifuged at 14,000×g for 15 minutes. A Bradford protein assay may be performed to determine the protein concentration of each lysate. Equivalent amounts of protein (for example, 25 μg) may be resolved by SDS-PAGE and then transferred to nitrocellulose membranes for Western Blot analysis. The membranes may be probed with an anti-RAR alpha antibody and/or an anti-RAR gamma antibody.

RAR gamma = RAR gamma protein expression, Western Blot; type: cell-based, mouse; settings: MFc7 and 3T3-L1 cell lines; 1 μg/mL, 48 hours; Western Blot intensity
Description: as §1

[2] = test system: MFc7 mouse renal myofibroblasts; assay: MFc7 bioassay; type: cell-based; settings: EC50 of wild type BMP7 protein/EC50 of the variant
Description: MFc7 mouse renal myofibroblasts (mouse kidney fibroblast cell line) may be maintained under routine cell culture conditions in OPTI-MEM/10% FBS medium. The cells may be plated in 10 cm tissue culture plates at a seeding density of 500,000 cells/plate. After approximately 48 hours, the cells may be washed with phosphate buffered saline (PBS) prior to the addition of OPTI-MEM/2% dialyzed fetal bovine serum (FBS) medium containing 1 μg/ml BMP7 protein or 1 μg/ml of a BMP7 protein variant and incubated for 48 hours. After treatment the cells may be rinsed with PBS and stored at −80° C. for 20 minutes. After thawing the cells at 37° C. for 30 minutes 100 μl of para-nitrophenyl phosphate (PNPP) may be added. The plate may be incubated at 37° C. for 1 hour. The absorbance at 405 nm may be read utilizing a plate reader. The average relative potency (EC50 of wild type BMP7 protein/EC50 of the BMP7 protein variant) of certain human BMP7 protein variants of the present invention may be calculated based on such readings.

[3] = test system: female CB17SC-M SCID mice; assay: Ectopic bone formation model; type: in vivo; settings: 3 μg/100 μl subcutaneous; CT scan on Day 13
Description: Ectopic bone formation (EBF) may be measured in female CB17SC-M SCID mice upon subcutaneous administration of certain human BMP7 protein variants of the present invention compared to wild type human mature BMP7.
Briefly described, the mice may be anesthetized with 3% isoflurane and are injected with 3 μg/100 μl of the human BMP7 protein variant, wild type human mature BMP7 protein or a vehicle control on the back left flank. The back right flank of each mouse may serve as a control (no injection). Vehicle (pH 4.5): 0.5% Sucrose, 2.5% Glycine, 5 mM L-Glutamic Acid, 5 mM NaCl, 0.01% polysorbate 80, and, 0.1% BSA.
EBF may be measured by a CT scan on Day 13 after injection of the human BMP7 protein variant or wild type human mature BMP7 protein.

[4] = single amino acid change (Table 4)
[5] = multiple amino acid changes (Table 3)

Row | Molecule | Average Relative Potency [2, 4] | Average Relative Potency [2, 5] | other results
1 | human pro-BMP7 protein variant V114M: human pro-BMP7 protein variant with V114M in the mature domain | – | – | thermal unfolding mid-point (Tm) [1]: 64.5 °C
2 | B1 | – | – | RAR alpha protein expression (RAR alpha): stimulated; RAR gamma protein expression (RAR gamma): stimulated
3 | B2 | 7.5 | – | –
4 | B3 | 3.3 | – | –
5 | B4 | 16 | – | –
6 | B5 | 1.7 | – | –
7 | B6 | 17.4 | – | –
8 | B7 | 3.3 | – | –
9 | B8 | 5.5 | – | –
10 | B9 | 9.4 | – | –
11 | B10 | 1.3 | – | –
12 | B11 | 7.5 | – | –
13 | B12 | 3 | – | –
14 | B13 | 5.9 | – | –
15 | B14 | – | 8.7 | –
16 | B15 | – | 7 | –
17 | B16 | – | 10 | –
18 | B17 | – | 6.2 | –
19 | B18 | – | 9 | –
20 | B19 | – | 5.0 | –
21 | B20 | – | 16 | Ectopic Bone Formation Volume [3]: 11 mm^3
